Measured values taken from patent publication US20260007756A1, “COMPOUND AND USE THEREOF” (COHERENT BIOPHARMA (SUZHOU) LIMITED, priority 2022, published 2026).
In brackets after ≈: the same amount, converted by molar mass. Like-named read-outs stand apart in the source and are kept apart here.

What was measured:
[1] = tested on: human prostate cancer 22RV1 cell subcutaneous xenograft tumor; assay: Pharmacodynamic assessment, 22RV1 xenograft model; format: in vivo
Text: Objective: Pre-clinical pharmacodynamic study of compounds for treating BALB/c nude mouse model with 22RV1 cell subcutaneous xenograft tumor (overexpressing PSMA).
Procedures: 22RV1 tumor mass was grafted subcutaneously at the right back of the mice, and the mice were randomized after the mean tumor volume was 150 mm^3. After administration, the animals were monitored daily for health conditions and death, and the routine examinations included observation of the effect on tumor growth and the effect of the treatment on the daily performance of the animals, such as behavioral activities, food and water intake, weight changes (measured once every other day), appearance, or other abnormal conditions. Whether the tumor growth was inhibited or delayed or the tumor was cured was also observed. The tumor volume was measured periodically. The tumor volume was calculated using the following formula: V=1/2×(a×b^2), where a and b denote the long diameter and short diameter of the tumor, respectively.

[2] = tested on: 22RV1; details: 22RV1 (PSMA overexpression), 72 h, CCK-8
Method: (§1) Major reagents: 1640 folic acid-free medium, fetal bovine serum, penicillin-streptomycin solution, L-glutamine, and CCK8.
(§2) Cells were prepared in advance, trypsinized, collected, counted, diluted to 2×10^4 cells/mL in a complete cell culture medium, and plated in 96-well plates. The diluted cell suspension was added at 100 μL/well, and negative and blank control wells were set on each plate. The 96-well plates with the added cells were incubated overnight at 37° C. in a 5% CO2 incubator.
(§3) Samples were serially diluted with medium (serially 5-fold diluted from 10 μM) to 9 concentrations. The medium in the plates was discarded, and the drug solutions were added at 100 μL per well to a 96-well plate in triplicate. Negative and blank controls were set. The plates were incubated at 37° C. for 72 h in a 5% CO2 incubator.
(§4) A CCK-8 developing solution was added at 10 μL/well (10% of the liquid volume in the wells). The plates were incubated at 37° C. for a proper time (the OD value was controlled within the range of 1.0-2.5 as possible). The plate covers were removed, and the 96-well plates were loaded on a microplate reader (Molecular Devices SpectraMax iD5) to read the measurement at 450 nm.
(§5) Four-parameter curves were fitted using GraphPad Prism 8.0.2 to give IC50 values.

[3] = tested on: 293T-PSMA; details: 72 h, CCK-8
Method: as §1, §2, §3, §4, §5

[4] = tested on: MDA-MB-231-FOLR1; details: MDA-MB-231-FOLR1, 72 h, CCK-8
Method: as §1, §2, §3, §4, §5

[5] = tested on: MDA-MB-231-PSMA; details: 72 h, CCK-8
Method: as §1, §2, §3, §4, §5

[6] = tested on: LNCaP; details: LNCap (PSMA overexpression), 72 h, CCK-8
Method: as §1, §2, §3, §4, §5

[7] = tested on: C4-2; details: C4-2 (PSMA overexpression), 72 h, CCK-8
Method: as §1, §2, §3, §4, §5

[8] = Solubility study in PBS; format: physicochemical; details: aqueous buffer, thermodynamic from solid; PBS (pH 7.2 to 7.4); read-out: Solubility, concentration
Method: The mixture was vortexed for 2 min until the solid was dissolved. The solubility was calculated as: C=m/V, C: concentration, m: sample weight, V: PBS total volume.

[9] = tested on: human prostate cancer C4-2 cell subcutaneous xenograft tumor; assay: Pharmacodynamic assessment, C4-2 xenograft model; format: in vivo, NCG mouse; details: 12.5 mg/kg i.v biw×3, day 23 after grouping
Text: Objective: Pre-clinical assessment of the efficacy of compounds for treating NCG mouse model with C4-2 cell subcutaneous xenograft tumor (overexpressing PSMA).
Procedures: C4-2 cells were subcutaneously grafted at the right back of the mice, and the mice were randomized when the mean tumor volume reached 100-150 mm^3. After the administration, the routine monitoring included the effect on tumor growth and the effect of treatment on the normal behavior of the animals, specifically the activity, food and water intake, weight gain or loss, the eyes, the hair, and other abnormal conditions. Clinical symptoms observed during the study were recorded in the raw data. After the administration was started, the body weight and tumor size of the mice were measured periodically. The tumor volume was calculated using the following formula: V=1/2×(a×b^2), where a and b denote the long diameter and short diameter of the tumor, respectively.

[10] = biological target: cathepsin B-human liver (Homo sapiens, UniProt P07858); assay: Cathepsin B cleavage study (HPLC); format: in vitro ADME; parameters: cathepsin B-human liver (source: Sigma); purchased Sigma; host or cells: human liver (tissue-derived, as the product name says); details: 37° C.
Method: Procedures: The conjugate compounds were dissolved in acetonitrile-water (1:1, containing 0.1% TFA) to prepare 1 mg/mL stock solutions; 30 μL of the 1 mg/mL stock solution was added to 570 μL of 50 mM NaOAc (containing 1 mM EDTA and 10 mM cysteine), and the mixture was mixed well; 7 μL of cathepsin B (0.05 U/μL) was added, and the mixture was gently mixed evenly; the reaction system was transferred into a 37° C. thermostat for 0, 1, 2, 4, or 8 h of incubation; samples were taken at each time point for HPLC analysis.

[11] = Plasma stability study 1; format: in vitro ADME; details: mouse plasma, 37° C.
Method: Procedures: The conjugate compounds were dissolved in acetonitrile-water (1:1) or acetonitrile-water (1:1, containing 0.1% TFA) to prepare 1 mg/mL stock solutions; 10 μL of the 1 mg/mL stock solution was added to 90 μL of plasma, and the mixture was gently mixed well. The plasma drug samples were shaken and incubated in a 37° C. thermostat for 0, 0.5, 1, 2, 4, 6, or 24 h; at the time points, the samples were taken out and 300 μL of methanol solution (containing 10 ng/ml of terfenadine) was added for protein precipitation; the mixture was centrifuged (12 min, 4° C., 12000 rpm) and the supernatant was collected, and preserved in a −80° C. refrigerator; after collection, the samples were loaded for LC-MS analysis.

[12] = tested on: LNCaP; assay: Expansion inhibition of tumor cells (Example 10, CCK-8); format: cell-based; details: Homo sapiens, LNCap (PSMA overexpression), 72 h
Method: Samples were serially diluted with medium (serially 5-fold diluted from 10 μM) to 9 concentrations. […] Negative and blank controls were set.
as §4

[13] = 12.5 mg/kg iv biw×3, day 31 after grouping

Q: For `CC[C@@H]1C(=O)N(C)c2cnc(Nc3ccc(-c4cn(C5CCC(N(CCOCCC#Cc6cccc7c6CN(C6CCC(=O)NC6=O)C7=O)C(=O)OCc6ccc(NC(=O)[C@H](CCCNC(N)=O)NC(=O)[C@H](Cc7ccccc7)NC(=O)CCCCCN7C(=O)CC(SC[C@H](NC(=O)[C@H](CCCCN)NC(=O)[C@H](CC(=O)O)NC(=O)[C@H](CC(=O)O)NC(=O)Cc8ccc(CNC(=O)NCCCC[C@H](NC(=O)N[C@@H](CCC(=O)O)C(=O)O)C(=O)O)cc8)C(=O)N[C@@H](CCCCNC(=O)CC[C@H](NC(=O)c8ccc(NCc9cnc%10[nH]c(N)nc(=O)c%10n9)cc8)C(=O)O)C(N)=O)C7=O)cc6)CC5)nn4)cc3OC)nc2N1C1CCCC1` (stereo partly shown) [CR20293], which Mean tumor volume [1, 13] is on record?
A: Its Mean tumor volume is 46.32 mm^3.

Q: And the TGI [1, 13]?
A: Its TGI is 97.51%.

Q: And the “Tolerability (body weight, death)” value ([1]; tumor-bearing BALB/c nude mice, during the study)?
A: The value was “well tolerated”.

Q: And the IC50 [2]?
A: Its IC50 is 16.4 nM.

Q: What about the IC50 [3] of the same compound?
A: Its IC50 is 3270 nM.

Q: And the IC50 [4]?
A: Its IC50 is 94.2 nM.

Q: And the IC50 [5]?
A: Its IC50 is 70.6 nM.

Q: And the IC50 [6]?
A: Its IC50 is 37.9 nM.

Q: And the IC50 [7]?
A: The IC50 was 78 nM.

Q: What about the solubility at 2 min [8] of the same compound?
A: Its solubility at 2 min is 20.6 mg/mL (≈ 6.75 mM).

Q: What about the Mean tumor volume [9] of the same compound?
A: Its Mean tumor volume is 778.70 mm^3.

Q: And the TGI [9]?
A: Its TGI is 55.47%.

Q: What about the “CR20274 release rate of conjugate compounds after cleavage” value (from here on “CR20274 release rate … after cleavage”) ([10]; 0 h) of the same compound?
A: Its value is 0%.

Q: And the “Principal component residue of conjugate compounds after cleavage” value (“Principal component residue … after cleavage” below) ([10]; 0 h)?
A: Its value is 100%.

Q: And the “CR20274 release rate … after cleavage” value ([10]; 1 h)?
A: The value was 17%.

Q: And the “Principal component residue … after cleavage” value ([10]; 1 h)?
A: The value was 76%.

Q: And the “CR20274 release rate … after cleavage” value ([10]; 2 h)?
A: The value was 38%.

Q: And the “Principal component residue … after cleavage” value ([10]; 2 h)?
A: The value was 46%.

Q: What about the “CR20274 release rate … after cleavage” value ([10]; 4 h) of the same compound?
A: Its value is 59%.

Q: And the “Principal component residue … after cleavage” value ([10]; 4 h)?
A: The value was 27%.

Q: And the “CR20274 release rate … after cleavage” value ([10]; 8 h)?
A: The value was 64%.

Q: What about the “Principal component residue … after cleavage” value ([10]; 8 h) of the same compound?
A: The value was 7%.

Q: And the “CR20274 release rate of compounds in plasma stability study” value (from here on “CR20274 release rate of compounds”) ([11]; 0 h)?
A: Its value is 0.00%.

Q: And the “Principal component residue of compounds in plasma stability study” value ([11]; 0 h)?
A: The value was 83.13%.

Q: What about the “CR20274 release rate of compounds” value ([11]; 0.5 h) of the same compound?
A: The value was 0.17%.

Q: And the remaining at 0.5 h, 100 μg/mL ([11]; 0.5 h, read-out: Principal component residue of compounds in plasma stability study)?
A: Its remaining at 0.5 h, 100 μg/mL is 75.6%.

Q: And the “CR20274 release rate of compounds” value ([11]; 1 h)?
A: The value was 0.32%.

Q: And the remaining at 1 h, 100 μg/mL ([11]; 1 h, read-out: Principal component residue of compounds in plasma stability study)?
A: Its remaining at 1 h, 100 μg/mL is 75.8%.

Q: What about the “CR20274 release rate of compounds” value ([11]; 2 h) of the same compound?
A: The value was 0.52%.

Q: What about the remaining at 2 h, 100 μg/mL ([11]; 2 h, read-out: Principal component residue of compounds in plasma stability study) of the same compound?
A: Its remaining at 2 h, 100 μg/mL is 67.8%.

Q: And the “CR20274 release rate of compounds” value ([11]; 4 h)?
A: The value was 0.67%.

Q: What about the remaining at 4 h, 100 μg/mL ([11]; 4 h, read-out: Principal component residue of compounds in plasma stability study) of the same compound?
A: Its remaining at 4 h, 100 μg/mL is 69.8%.

Q: What about the “CR20274 release rate of compounds” value ([11]; 6 h) of the same compound?
A: The value was 0.95%.

Q: And the remaining at 6 h, 100 μg/mL ([11]; 6 h, read-out: Principal component residue of compounds in plasma stability study)?
A: The remaining at 6 h, 100 μg/mL was 70.5%.

Q: What about the “CR20274 release rate of compounds” value ([11]; 24 h) of the same compound?
A: The value was 3.38%.

Q: What about the remaining at 24 h, 100 μg/mL ([11]; 24 h, read-out: Principal component residue of compounds in plasma stability study) of the same compound?
A: Its remaining at 24 h, 100 μg/mL is 45.4%.

Q: For `Cc1ncsc1-c1ccc(CNC(=O)C2CC(O)CN2C(=O)C(NC(=O)COCC(=O)NC2(C(=O)NCCCn3cc(-c4ccc(OC(F)(F)F)cc4)c4cc(CN5CCN(Cc6c(Cl)cccc6Cl)CC5)ccc43)CCNCC2)C(C)(C)C)cc1` (stereo not shown) [CR202CC], which IC50 [12] is on record?
A: The IC50 was 0.3 nM.
